According to patent publication US20150299263A1 (FACTOR THERAPEUTICS, published 2015):
Where no end group is shown, it is not given here.

Columns and labels:
Experiment in all cases: VN-peptide array, ligand overlay, immunoblot/ECL, TotalLab spot intensity
[1] = target: T1, Human receptor grade IGFBP-3 (insulin-like growth factor binding protein 3) (human, UniProt P17936 28-291)
T1 construct: Bought recombinant protein, overlaid in solution on the VN-peptide array
Protocol: (§1) Methanol or ethanol was used to enhance the rehydration of peptide spots that might be hydrophobic. The peptides spotted onto the membranes were activated by incubating in 3 mL of 70% ethanol for five mins. The membranes were subsequently washed three times, 10 minutes each, in 10 mL TBS (Tris Buffered Saline; 8 g NaCl, 0.2 g KCl and 6.1 g Tris Base into 1000 mL of milliQ water, pH 7) with gentle rocking. Membrane blocking was performed by incubating in 10 mL casein-based membrane blocking buffer (MBS; Sigma-Aldrich) overnight at 4° C. The following day, the membranes were washed twice, 10 minutes each, in 10 mL TBS-T (TBS+0.05% Tween-20; pH 7).
(§2) Ligands used to test binding to VN-peptides were IGFBP-3, IGFBP-5 and IGF-II. For ligand binding, four separate solutions of 1 μg/mL ligand in 10 mL MBS buffer were prepared and each membrane was incubated in one of the four ligand solutions overnight at 4° C., with gentle rocking. […] The following day, the membranes were washed three times, 10 minutes each, in 10 mL TBS-T.
(§3) The binding of the ligands to peptides within the membrane was detected using immunoblotting. The membranes were incubated overnight at 4° C. with 10 mL primary antibody solution (in MBS buffer) targeting the respective ligands. The antibodies used were anti-IGFBP-3 (1:10,000), anti-IGFBP-5 (1:10,000) and anti-IGF-II (1:5000) to detect IGFBP-3, IGFBP-5 and IGF-II respectively. The following day, the membranes were washed three times, 10 minutes each, in 10 mL TBS-T and incubated with 10 mL HRP-conjugated secondary IgG antibody diluted 1:15,000 in MBS buffer for 1 hour at room temperature. Following a further three washes of 10 minutes each, the peptide spots were visualized using ECL. The membranes were exposed onto x-ray films and developed using a film processor (AGFA CP 1000), or were imaged directly using the ChemiDoc™ XRS system (BioRad).

[2] = target: T2, Human receptor grade IGFBP-5 (insulin-like growth factor binding protein 5) (human, UniProt P24593 21-272)
T2 construct: Bought recombinant protein, overlaid in solution on the VN-peptide array
Protocol: as §1, §2, §3

[3] = target: T3, Human receptor grade IGF-II (insulin-like growth factor II) (human, UniProt P01344 25-91)
T3 construct: Bought recombinant protein, overlaid in solution on the VN-peptide array
Protocol: as §1, §2, §3

T3 sequence (P01344 25-91 limits assumed): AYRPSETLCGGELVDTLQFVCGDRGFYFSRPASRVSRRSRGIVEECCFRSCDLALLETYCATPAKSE
T1 sequence (P17936 28-291 limits assumed): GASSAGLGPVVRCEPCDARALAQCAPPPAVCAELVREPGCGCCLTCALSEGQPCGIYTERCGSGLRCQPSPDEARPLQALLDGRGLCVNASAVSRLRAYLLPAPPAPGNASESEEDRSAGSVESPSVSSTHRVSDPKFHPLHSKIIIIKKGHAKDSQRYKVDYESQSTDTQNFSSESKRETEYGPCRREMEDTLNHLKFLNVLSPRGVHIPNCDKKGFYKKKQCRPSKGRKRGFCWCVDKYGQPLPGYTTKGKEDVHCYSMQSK
T2 sequence (P24593 21-272 limits assumed): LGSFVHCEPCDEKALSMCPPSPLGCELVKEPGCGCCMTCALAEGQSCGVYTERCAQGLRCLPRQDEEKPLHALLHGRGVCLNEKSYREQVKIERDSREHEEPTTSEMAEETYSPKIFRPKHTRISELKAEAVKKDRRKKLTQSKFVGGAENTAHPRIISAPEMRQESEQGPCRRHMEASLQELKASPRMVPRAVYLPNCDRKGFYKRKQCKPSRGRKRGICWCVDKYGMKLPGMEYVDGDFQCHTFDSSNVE

| Intensity (against -ve control) [1] | Intensity (against -ve control) [2] | Intensity (against -ve control) [3] | Binder |
| --- | --- | --- | --- |
| 4 fold over negative controls | 5 fold over negative controls |  | KPEGIDSRPETLHPGR (not fully specified (N-terminus); also: free end capped by acetylation, immobilised on cellulose membrane (SPOT synthesis)) [VN-peptide 2A (array grid C12)] |
|  |  | 12 fold over negative controls | SNLGANNYDDYRMDWL (not fully specified (N-terminus); also: free end capped by acetylation, immobilised on cellulose membrane (SPOT synthesis)) [VN-peptide 7C (array grid I9)] |
| 12 fold over negative controls |  |  | QYWEYQFQHQPSQEEC (not fully specified (N-terminus); also: free end capped by acetylation, immobilised on cellulose membrane (SPOT synthesis)) [VN-peptide 4B (array grid F13)] |
|  |  | 18 fold over negative controls | SEESNLGANNYDDYRM (not fully specified (N-terminus); also: free end capped by acetylation, immobilised on cellulose membrane (SPOT synthesis)) [VN-peptide 7B (array grid I8)] |
| 4.5 fold over negative controls |  |  | MQRDSWEDIFELLFWG (not fully specified (N-terminus); also: free end capped by acetylation, immobilised on cellulose membrane (SPOT synthesis)) [VN-peptide 5C (array grid G7)] |
|  |  | 17 fold over negative controls | LFSSEESNLGANNYDD (not fully specified (N-terminus); also: free end capped by acetylation, immobilised on cellulose membrane (SPOT synthesis)) [VN-peptide 7A (array grid I7)] |
| 1.5 fold over negative controls |  |  | FEHFAMMQRDSWEDIF (not fully specified (N-terminus); also: free end capped by acetylation, immobilised on cellulose membrane (SPOT synthesis)) [VN-peptide 5A (array grid G5)] |
| 2.5 fold over negative controls |  |  | DSWEDIFELLFWGRTS (not fully specified (N-terminus); also: free end capped by acetylation, immobilised on cellulose membrane (SPOT synthesis)) [VN-peptide 5D (array grid G8)] |
| 6 fold over negative controls |  |  | KGKQYWEYQFQHQPSQ (not fully specified (N-terminus); also: free end capped by acetylation, immobilised on cellulose membrane (SPOT synthesis)) [VN-peptide 4A (array grid F12)] |
| 4.5 fold over negative controls |  |  | FAMMQRDSWEDIFELL (not fully specified (N-terminus); also: free end capped by acetylation, immobilised on cellulose membrane (SPOT synthesis)) [VN-peptide 5B (array grid G6)] |
| 2 fold over negative controls | 7 fold over negative controls |  | GIDSRPETLHPGRPQP (not fully specified (N-terminus); also: free end capped by acetylation, immobilised on cellulose membrane (SPOT synthesis)) [VN-peptide 2B (array grid C13)] |
